Experimental data: the supplement of paper PMC12042874
± gives the uncertainty stated by the source.

assay: amyloid nucleation score (Sup35N fusion, yeast selection) (log enrichment); library NNK3; higher = more nucleation; inactive = no reads after selection
Summary of the method: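 The nucleation score, computed with DiMSum, is the log enrichment of output over input reads, centred on the mode score of non-aggregating sequences. Sequences with under 100 input reads were dropped. Reads were generated by Illumina sequencing of plasmid inserts from psi-negative yeast with Sup35N fused to peptides of 20 random codons, induced with 100 μM copper sulfate for 24 hours and grown 7 days at 30°C on medium lacking adenine and uracil.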

Amyloid nucleation score, 0.54 ± 0.31:
EFCVYMSNGGKNLRTRTWAQ

Amyloid nucleation score, 2.21 ± 0.068:
ESSISTLFIFNMVGPQ

Amyloid nucleation score, 0.653 ± 0.11:
EYIAFISTIPDMSLFSDVLF

Amyloid nucleation score, 0.091 ± 0.53:
EVSSGCCERGVYLMLLCTGT

Amyloid nucleation score, -0.228 ± 0.93:
EVSIKAVDWRVSDVTVARTC

Amyloid nucleation score, 1.08 ± 0.13:
FCRCKLFFAGCF

Amyloid nucleation score, 1.29 ± 0.096:
EVGVTSLTIGHVT

Amyloid nucleation score, 0.64 ± 0.26:
EINFMKRASRVRLKQYNQ

Amyloid nucleation score, 1.77 ± 0.11:
EAFSSHKNFNVTCFPK

Amyloid nucleation score, 0.98 ± 0.2:
EPNVFSSLGILNINVVALWL

Amyloid nucleation score, 1.87 ± 0.1:
FEETIINFCRYLFMMFTGVV

Amyloid nucleation score, 0.019 ± 0.73:
ECYLEIASDSYINLKFARIE

Amyloid nucleation score, -0.638 ± 0.84:
DYFEYCRRSKRFPKKDQPVN

Amyloid nucleation score, -0.227 ± 0.69:
ETYNRR

Amyloid nucleation score, 0.375 ± 0.22:
DSSSLRSNVLVTVCVLVSSI

Amyloid nucleation score, 0.282 ± 0.74:
EGGLDFVFLYYGIICWVVAA

Amyloid nucleation score, 0.323 ± 0.45:
DYMLLWNCVLVILFN

Amyloid nucleation score, 0.225 ± 0.43:
EDKGYWNLQAIEIVIQYGGR

Amyloid nucleation score, inactive:
DNPTYRYTICGMTLEHPKEE
DPSPGYLLSY
DPVEIRG
DQGLLRLMDTWLCMGVRQPS
DRHLAINERARLVAWFYYDF
DRIGVQ
DRISSNDMCGWESGVISIHD
DRNAEELWCTRLLCYESCRT
DRYMRLCVFGYKYVSYG
DRYYDSLC
DSCQKVVWIGSGEVRKAWRY
DSDKNPHGVLSSIGCMYVRS
DSFLVYIKSCIIILTGLNLY
DSGKDKF
DSSNGFICR
DSTVTSE
DSVFCVRLAKLVGLHSSF
DSYDLYIVD
DTDNWVLTDKTTGCSAVNGG
DTESWNCFFYRDYYSGQILK
DTEVHQNRFRMFGACDRERK
DTGDCVPGVLSRYLMIWDG
DTQSKTRRV
DTVKKVYSYYMTLNYVEPLP
DVFVHHDM
DVITIEYVCF
DVNHVMNMNIGSNRN
DVPSSSSMAFGIWLGLLCLD
DVRMLRLMVRELYC
DVYGDGCSCYSVKYTCDRCQ
DWFSAVR
DWRMLRGFYLHINCMLSFQG
DWVGRYSVSMWILIGRGSLW
DYCGKRYPSASVKWPECFRG
DYDRIR
DYDYTRFPVITV
DYEHSGSCKIDFVTL
DYESMTCNVSSDTVPFQQA
DYNSCCSEREVGKKEYTKNN
DYVWADLFCWASGSYLDGEC
EALGKSFLVKFKTIKYLRLA
EAPFDHPLYLRDLY
ECGWNMFCDRAHMSLGFYSM
ECRHSEWTEYFPSMRFMQAY
ECYVR
EDGLGSYFNKKVNATCLNLA
EDMVARGSLSKGHWKDLAT
EELLRGFGAVGSWLNLSLEV
EFIGGRAMLYEEWYMGVSSM
EFLPKWDMQARDVTTLFGCP
EFLPSCICDGKFISSLVCEP
EFSKHFPCWHRNSVAYYEIR
EFTFWWCCDRYSRAELTCRR
EFYGVVSRVPYERTPGTKVE
EGGDHCMNGHCVCRVGWLWA
EGHHPVGGGLLIFASLT
EGRCMRKCARVNGSWAMKWM
EGRWTCPFGGWTESFGSLYW
EGSDIA
EGYQVFFNDLVLTLVMRVEV
EGYRFCCGMLIN
EHLPSSHP
EHSNNFTHNYVFWIGIGLAC
EHYVDCVGDVAVRDVLVGAS
EILSPVGTSTCILTSPRTCY
EINMKSLV
EIWSDKCSTRSMLHPAYIMY
EKDMFQNVLLVKAYD
EKRYRPEKTF
ELAFMNYYNNECSRPLLSSP
ELDAYIRRGLCSLKWCRKLN
ELHYPVLVDS
ELIDFTIGLL
ELMHFLAFVGDAMYVLSGII
ELNWWHLLVICCVYYFMVLF
ELRSHKLMMGRQYLHRLCSV
ELSSLSFHIHNMEFREKVKG
ELVVTNVNGFLMW
ELYSDG
EMGEGIL
EMTMTWCMVVRLVWVTNGIL
ENLSEVWLSYVDSLSIYVLS
ENNVRTVHVISWAIFLSTYF
ENVARGAMFCPMHRGFQSSE
ENWDSILCKWRGAGMRGSAW
EPDFEHIVCAFMGSTTGYYW
EQIPMKSVEGEYWLTVIVGN
EQMWFEVCYGCRSCSEALLR
ERHDGCFQ
ERNNKCDNTVLMKREELQG
ERQNMSYMGHKKEYLNHYFW
ERRIPRSNLKRRSKLSKFPA
ERRVLISERAQWISLLYGIL
ERSFAYDYDCSVCFTHAFAT
ERTSYSC
ESAYFLAYLQVLLWRVMGEL
ESKMGCP
ESMTSNYYQMIGVFCEMLVR
ESNDIIINV
ESNRTFTKSTFFLTNEVKGL
ESPNGFFGSMDVCVLPRGSV
ESRFCTYVSSRDYISTIQFN
ETDYVGRFALMKYDGLVYI
ETGLLFGWDRVSSYWGVLKT
ETRMGTK
ETTYGFDKIYGVEYVCGLCR
EVGDPMYRTIGVKFGPLAME
EVLGSLFYFGYTTGLFIPF
EVLSNDGAGLFFHGKKCMYI
EVQEKAEHHVLVGRVANPRF
EVYKYKSEERMVAST
EYKRTSMVVQFSCSAYILTF
EYMYIYPPFPMPWDDG
EYQTNNDYLQLTCLKSSWSS
EYYGRVLSLTVTNIHFFRVF
EYYLDMDLMFMMG
FAGCWTVTSMGFCNRSGMKL
FAGESN
FARKWCVKNGYGSRTSASFM
FASIYNFHDRIVSLRDQGR
FAYLVS
FCARYLFCLISGDYS
FCGIYCKAINSFAVDLMPWI
FCHRYEMYIELTYTEGA
FCLCAFSALQRVYI
FCLVFSELILFCVCSWVNST
FCRHVKFYRMRAACVDNRRI
FDGYCFFYYWLGVWWSTSI
FDKTCGSSRNLSRAWDNLTF
FDVNIPFCSNSFSYHTNSGS
FECGRFMGLVVLAVRSGNVM
FEDLKTDSILYQFSRAYGDW
FEIRLFISGQDQAHGCCPWY
FELDIAYTEVLAVDCIPVVL
FEYNRQYTRLSSVRVRIRGS

Amyloid nucleation score, -0.047 ± 0.98:
DYTCACLRVRI

Amyloid nucleation score, -0.463 ± 0.93:
EKFTMLARSKAAICLVDKSC

Amyloid nucleation score, 0.921 ± 0.17:
DRRLPIKPHVFVYSCNSICM

Amyloid nucleation score, 1.65 ± 0.088:
EMVLGWSARFCDK
